Measurements: the DeepSol protein solubility set

Experiment: soluble on expression in E. coli; label from the status in PepcDB or PDB records

| Sequence | soluble on expression in E. coli |
| --- | --- |
| MSLSDFLILSDPDLDTLGITTDEIQTALEAAIRAQIRATVHVAPKSALLPGDGRYVMTTLATGNSPALTVVKSVMVSPDNPARGLPGTEGVLLVQDSETGQLRALMQAGWITRMRTAGLSALVARRLGDPAARVVAFIGAGAQARAHLAALCDLFPLQRAVILGRGAENIARLSAAARARGLQAEIADNPHQAIADADLVVSSVTLDHQMTPFLDARWLKPGAFASLTDTGLPWQPDGMAALDPLYIDDLAQEAANPRPMIDPARVGGDLAALLGEDLHSTNVNRHDPSRRAGFLFRGPAIADFALAALALHRAQSLGAGRDTAWPDATREGHHHHHH | soluble |
| MRKLTAMLVASSLALGAAGLAHANEAPKGPGSEHKMMMKEGREHRGMMGSDAMFKELNLTEAQKQQIKDIMKDSREKMHKAMQDDRRDMHSLVASDTFDAAKAQAQLDKADAAHKARMLSGLETKNKIYNVLTPEQKKQYNDSFEKRLTQPPKPDGKPVPAELEHHHHHH | soluble |
| MGHHHHHHSHMEYHTMIRELILDGSLQLIQEGLKSGFLYPLFEKQDKGSKPITLPLDACSLSELCEMAKHLPSLNEMEHQTLQLVEEDTSVTEQDLFLRVVENNSSFTKVITLMGQKYLLPPKSSFLLSDISCMQPLLNYRKTFDVIVIDPPWQNKSVKRSNRYSYLSPLQIQQIPIPKLAAPNCLLVTWVTNRQKHLRFIKEELLSLLVCGGSC | not soluble |
| MEKAYKILSVQENISHKKAKALIDSGLVSIGGKKLMVARKELPKNTHFSVQKVEKPSVIFEDENILALFKPPFIESYDLASFFKGWALLHRLDKETSGVVLLVKENSEFHLKAKKAFKDRAVKKEYLALTQGIIEEEREINAPILTFKTTKAFSKISKKGQEAVTIITPLKIINKKTLLKVGIKTGRTHQIRVHLKHINHPIIGDTLYNNEPSLAKRLMLHAHKIALLGYEFEAIAPKEFEILEHHHHHH | soluble |
| MHNSTGRYVLGMEVMTPTGMNLDIATSVANADLARFDQVVGEDGIERFTFAKIEYTKESDLFEKTCELTANLLDSLLTQLPRS | not soluble |
| MPDHGPAFTVKIAETEAELHAAQRLRYDVFVRELGGSGALVDHQAGLERDRFDPFFDHMLCINNRSGQVVGVYRLLRDEQAQSAGQFYSEDEYDLGVLKRSGRRLLELGRSCVHPDYRGGMAMYHLWNGLADYVEQHGIEVLFGVASFHGTDVEALAQPLSMLYHNHLAPEDLRVRTQPAHYVDMNRITPEALDRRRAMLEVPSLIKAYLRLGGFVGDGAYIDHAFNTTDVCLILDTARMNERQRRIYGGG | not soluble |
| MGSDKIHHHHHHMIYIDKNESPVTPLDEKTMTSIISATPYNLYPDAAYEQFKEAYAKFYGLSPEQIIAGNGSDELIQKLMLIMPEGPALTLNPDFFMYQAYAAQVNREIAFVDAGSDLTFDLETILTKIDEVQPSFFIMSNPHNPSGKQFDTAFLTAIADKMKALNGYFVIDEAYLDYGTAYDVELAPHILRMRTLSKAFGIAGLRLGVLISTAGTIKHIQKIEHPYPLNVFTLNIATYIFRHREETRVFLTMQRQLAEQLKQIFDTHVADKMSVFPSNANFVLTKGSAAHQLGQYVYEQGFKPRFYDEPVMKGYVRYSIATASQLKQLEEIVKEWSAKYDLSKTTKHS | not soluble |
| MRVELDFRSVKMQVSQYLYQNVQSIWGDCISHPFVQGIGRGTLERDKFRFYIIQDYLFLLEYAKVFALGVVKACDEAVMREFSNAIQDILNNEMSIHNHYIRGLQITQKELQNARPTLANKSYTSYMLAEGFKGSIKEVAAAVLSCGWSYLVIAQNLSQIPNALEHAFYGHWIKGYSSKEFQACVNWNINLLDSLTLTSSKQEIEKLKDIFITTSEYEYLFWDMAYQSLEHHHHHH | not soluble |
| MISKYLVRDVMKKGVVEVTLDTKLSDVIKTMAKYDISSVVVSDGETFWGIITDTDVLKHYNDLDKTAEEIMTTNPITVSPEAPLEKAVEIMAEKGIHHLYVKSPCEDKIVGVLSSKDIIKLFSDLIE | soluble |
| MGSDKIHHHHHHMGLNLSKGDMYKFVNYTWNPIKGKCLHDCSYCYMKQINPNANPPRLAEYELNTDLGCGRSIFIGSSTDMFAEDIPSEWIARVLDYCYQNRNMLLPNAYLLQSKNPKRFLEFINHPIMERVVFCTTIETNRFYPEIMNKAPRIDERVEAMEEIARLGRPTMVTAEPLMQFDHEEMVSFIRRCSPKLVNIGRNSCRRIVLPEPTQEEVQQLIAELKSLKSFTKVNVKDNALEWCK | not soluble |
| MATIHVDGKEYEVNGADNLLEACLSLGLDIPYFCWHPALGSVGACRQCAVKQYQNAEDTRGRLVMSCMTPASDGTFISIDDEEAKQFRESVVEWLMTNHPHDCPVCEEGGNCHLQDMTVMTGHSFRRYRFTKRTHRNQDLGPFISHEMNRCIACYRCVRYYKDYADGTDLGVYGAHDNVYFGRPEDGTLESEFSGNLVEICPTGVFTDKTHSERYNRKWDMQFAPSICQQCSIGCNISPGERYGELRRIENRYNGTVNHYFLCDRGRFGYGYVNLKDRPRQPVQRRGDDFITLNAEQAMQGAADILRQSKKVIGIGSPRASVESNFALRELVGEENFYTGIAHGEQERLQLALKVLREGGIYTPALREIESYDAVLVLGEDVTQTGARVALAVRQAVKGKAREMAAAQKVADWQIAAILNIGQRAKHPLFVTNVDDTRLDDIAAWTYRAPVEDQARLGFAIAHALDNSAPAVDGIEPELQNKIDVIVQALAGAKKPLIISGTNAGSIEVIQAAANVAKALKGRGADVGITMIARSVNSMGLGIMGGGSLEEALTELETGRADAVVVLENDLHRYASATRVNAALAKAPLVMVVDHQRTAIMENAHLVLSSASFAESDGTVINNEGRAQRFFQVYDPAYYDSKTVMLESWRWLHSLHSTLLSREVDWTQLDHVIDAVVAKIPELAGIKDAAPDATFRIRGQKLAREPHRYSGRTAMRANISVHEPRQPQDIDTMFTFSMEGNNQPTAHRSQVPFAWAPGWNSPQAWNKFQDEVGGKLRFGDPGVRLFETSENGLDYFTSVPARFQPQDGKWRIAPYYHLFGSDELSQRAPVFQSRMPQPYIKLNPADAAKLGVNAGTRVSFSYDGNTVTLPVEIAEGLTAGQVGLPMGMSGIAPVLAGAHLEDLKEAQQ | not soluble |
| MRVKIRRELLEYLLELAKSFYPREVAGFLRMKDGVFEEVLIVPKGFFGESSVYFDLTLMPHDESIKGTFHSHPSPFPYPSEGDLMFFSKFGGIHIIAAFPYDEDSVKAFDSEGREVELEVID | soluble |
| MGSDKIHHHHHHMENSQQHTDFRQRLELLIGSEKPYAWAARNGLNKGSFTNMWYKGGVPRIGTAQKIAANSGCRVEWLLYGEGPMQDECAQAHDAPMPAGLPALSPLADADEHEVPAGVQEEFCFIPRYNLKASAGFGTSAAGEQPMFYMAFRRYWVKNYLNASPRNLVVISVKGDSMSGVLEDRDTILVNTAERHPGEGLFVIRIGDDIFVKQLQRLPGGAVQVKSANPLYETFTVDLSRASGEFEVIGRVVWFGRQIA | not soluble |
| AHHHHHHGSKERLEKLVKFMDENSIDRVFIAKPVNVYYFSGTSPLGGGYIIVDGDEATLYVPELEYEMAKEESKLPVVKFKKFDEIYEILKNTETLGIEGTLSYSMVENFKEKSNVKEFKKIDDVIKDLRIIKTKEEIEIIEKACEIADKAVMAAIEEITEGKREREVAAKVEYLMKMNGAEKPAFDTIIASGHRSALPHGVASDKRIERGDLVVIDLGALYNHYNSDITRTIVVGSPNEKQREIYEIVLEAQKRAVEAAKPGMTAKELDSIAREIIKEYGYGDYFIHSLGHGVGLEIHEWPRISQYDETVLKEGMVITIEPGIYIPKLGGVRIEDTVLITENGAKRLTKTERELL | not soluble |
| PMEQVVRIHASSGTTGKPTVVGYTQNDIDNWANIVARSLRAAGGSAKDKIHVAYGYGLFTGGLGAHYGAERLGATVIPMSGGQTEKQAQLIRDFQPDMIMVTPSYCLNLIEELERQMGGDARGCSLRVGVFGAEPWTLAMRAEIERRLGITALDIYGLSEVMGPGVAMECLETVDGPTI | not soluble |
| ASVRVVQKNLVFVVGLSQRLADPEVLKRPEYFGKFGKIHKVVINNSTSYAGSQGPSASAYVTYIRSEDALRAIQCVNNVVVDGRTLKASLGTTKYCSY | soluble |
| MAHHHHHHMSRNPSNSDAAHAFWSTQPVPQTEDETEKIVFAGPMDEPKTVADIPEEPYPIASTFEWWTPNMEAADDIHAIYELLRDNYVEDDDSMFRFNYSEEFLQWALCPPNYIPDWHVAVRRKADKKLLAFIAGVPVTLRMGTPKYMKVKAQEKGEGEEAAKYDEPRHICEINFLCVHKQLREKRLAPILIKEATRRVNRTNVWQAVYTAGVLLPTPYASGQYFHRSLNPEKLVEIRFSGIPAQYQKFQNPMAMLKRNYQLPSAPKNSGLREMKPSDVPQVRRILMNYLDSFDVGPVFSDAEISHYLLPRDGVVFTYVVENDKKVTDFFSFYRIPSTVIGNSNYNLLNAAYVHYYAATSIPLHQLILDLLIVAHSRGFDVCNMVEILDNRSFVEQLKFGAGDGHLRYYFYNWAYPKIKPSQVALVML | not soluble |
| MINMKPQYYLGMMSGTSLDGVDIVLVDFSQDPQLILSDFFPMPEDLREKLTTLIQVGETTLQNLGELDHKLALLYSDCVNAFLQKNTFLPNQIQAIGCHGQTVWHSPNSQFPFTMQLGDMNLLAAKTGISVIGDFRRKDMAWGGQGAPLVPAFHEAVFSNSNFATAVLNIGGISNVSILFPNQAVIGFDTGPGNTLLDQWIEKHQGLRYDENGEWAAKGNVNKVLLDELLNEPFFSLPAPKSTGRELFNLVWLNHKIAKIREKLTALSVEMSFRPEDVQATLVELTVTSIVNALNQLQTDLPKRLLVCGGGAKNSLIMRGLHDNLLDWQVSTTTEQGFDIDYVEAAAFAWLAYCRINNLPANLPSVTGAKSAVSLGAIFPKD | not soluble |
| MGSDKIHHHHHHMTHPDGLFYQLIQDLAQGKGLPHLIWRLSQILNRPVLLTNSVHRVLVFHDPHHLNLDLDEFLYVPPVKLDEADFLNRSEHSLHHGQLTLNGQVFPFVYLPLLAGDYCLGYIFVLETYPLADSLKPKSLSAEDKETIFEASMPLLLCLKNSSEVSLRQEQYRDDFIRDILYNNYDSKAAIHEKAKSWGWNLQGSLLALVIDLPDRDFKTAREILPRLFNHSSPISAYINLQLVIILNINGLKKVKLKTALNNFINSFLDRLADHGKDRSSIGIGIGSGVPSITDLYKSYQEAKVAWELGKVFDHKSVCYFEEMGFLKFIFTQPARELEEFSQRVLGPLLEYDQAENTGLLDSLRVFIEYKCQIAECSKALYVHENTLRNRIKKIEQVTGFDLRRVDHMVNVYIALQVLNLGKDD | not soluble |
| MSSGKDFFVHSHALCESENIGKDSRVWAFAHILPGARLGSECNVCDNVFIENDVIIGDRVTLKCGVQVWDGITIEDDVFIGPNATFTNDLFPRSKVYPQTFARTIIRKGASLGANCTILPGITIGINAMVGAGAVVTRSVPPNAIVVGNPAKIIGYVDAKPVNANSETRAEQKAPGVTATSVKNVTLHTMNEVADIRGSLSAGEFERSVPFKTERYFLVYDVPTAETRGEHAHRICHQFLVAVKGSVHVVADDGVNREEFILDKPNQGIHLPPMTWGIQYRYSQDAVLLVFASHYYDAGDYIRNYEEFKSLIANAELEHHHHHH | soluble |
| MGHHHHHHSHMSSPSRKRTIAESKKKHEEKQMKAQQLREKLREEKTLKLQKLLEREKDVRKWKEELLDQRRRMMEEKLLHAEFKREVQLQAIVKKAQEEEAKVNEIAFINTLEAQNKRHDVLSKLKEYEQRLNELQEERQRRQEEKQARDEAVQERKRALEAERQAR | soluble |
